Assay results: publication PMC8909127 (Frontiers in Microbiology, 2022)
“And” between values parts separate entries of the source, which are not always exact repeats. Equal values may be shown once. No end group written: not given here.

T1: MPP5 PDZ (human, UniProt Q8N3R9 238-336)
T1 construct: PDZ domain of human MPP5 (PALS1), residues 238-336, numbering of the full-length human protein; […]; Labelled on amines with RED-NHS dye for MST; also called PALS1 PDZ; not shown: GST, N-terminal, cleaved
T1 sequence (looked up): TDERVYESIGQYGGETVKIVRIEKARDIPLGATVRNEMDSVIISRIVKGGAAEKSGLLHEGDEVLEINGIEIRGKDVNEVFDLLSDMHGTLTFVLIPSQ

T2: MLLT4 PDZ (human, UniProt P55196 1002-1095)
T2 construct: PDZ domain of human MLLT4 (Afadin); the residues named in the structure (1014-1022, 1071) fit 1002-1095; also called Afadin PDZ; not shown: His tag, N-terminal, cleaved; MBP, N-terminal, cleaved
T2 sequence (looked up): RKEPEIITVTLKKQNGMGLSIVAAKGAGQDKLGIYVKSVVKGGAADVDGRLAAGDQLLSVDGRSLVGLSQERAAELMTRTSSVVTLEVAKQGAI

T3: LNX2 PDZ2 (human, UniProt Q8N448 334-426)
T3 construct: second PDZ domain of human LNX2, residues 334-426, numbering of the full-length human protein; […]; Labelled on amines with RED-NHS dye for MST; also called LNX2-2; not shown: His tag, N-terminal, cleaved
T3 sequence (looked up): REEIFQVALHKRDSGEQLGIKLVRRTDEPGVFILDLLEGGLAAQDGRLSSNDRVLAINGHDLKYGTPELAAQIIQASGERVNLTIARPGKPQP

B1: C-terminal SARS-CoV-2-E PBM peptide (peptide)
peptide: NLNSSRVPDLLV
notes: also called SARS-CoV-2 WT; SARS-CoV-2 peptide E
B2: ZO-1 PDZ2 (domain or fragment, human, UniProt Q07157 184-264, looked up)
chain: PTKVTLVKSRKNEEYGLRLASHIFVKEISQDSLAARDGNIQEGDVVLKINGTVTENMSLTDAKTLIERSKGKLKMVVQRDE
notes: second PDZ domain of human ZO-1 (TJP1), residues 184-264, numbering of the full-length human protein; […]; Labelled on amines with RED-NHS dye for MST; also called TJP1 PDZ2; ZO-1-2
B3: ZO-1: PDZ2 domain of ZO-1, residues 184-264, at 1 mg/mL (protein)
chain: B2 chain
modifications: left off: His tag, N-terminal, state not stated
notes: PDZ2 domain of ZO-1, residues 184-264, at 1 mg/mL
B4: MLLT4-PBM: MLLT4-PDZ prepared with an excess of protein E PBM peptide (protein)
chain: T2 sequence (looked up)
modifications: left off: His tag, N-terminal, cleaved | MBP, N-terminal, cleaved
notes: MLLT4-PDZ prepared with an excess of protein E PBM peptide

Legend:
GST-PDZ LNX2 = test: GST pull-down, GST-PDZ LNX2; format: binding, human; conditions: HEK293 cell lysates; 2 h at 4°C with glutathione resins; anti-GFP Western blot
Procedure: (§1) To investigate whether the five PDZ domains can interact with the full-length E protein and in a PBM-dependent manner, glutathione S-transferase (GST) pull-down assays were performed with the purified GST-tagged PDZ domains of ZO-1, LNX2, PARD3, MLLT4, and MPP5 and the lysates of HEK293 cells overexpressing constructs of GFP alone, GFP-tagged wild-type full-length E protein (GFP-E-WT), GFP-tagged full-length E protein with the PBM mutated with glycines (GFP-E-GGGG), and GFP-tagged cytoplasmic tail of protein E (last 12 residues; GFP-E last 12 aa) designated 1, 2, 3, and 4 in Figure 2 (Figure 2A). The GFP-tagged construct expression was assessed by examining the fluorescence emitted by the GFP by microscopy and by Western blot on the cell lysates using anti-GFP antibody (Figure 2B). GST alone was used as a negative control. We confirmed by using Ponceau S staining that equal amounts of GST-tagged protein constructs were bound to the GST resin (Figure 2C).
(§2) Glutathione S-transferase alone and its fusion with PDZ ZO1, PDZ LNX2, PDZ MLLT4, PDZ MPP5, and PDZ PARD3 are used as baits and were immobilized on glutathione beads and tested for their ability to pull down GFP alone, GFP-E-WT, GFP-E-GGGG, and GFP-E last 12 aa by Western blot using the anti-GFP antibody. After washing, identical amounts of beads were analyzed for the presence of GFP-tagged proteins. […]

GST-PDZ PARD3 = test: GST pull-down, GST-PDZ PARD3; format: binding, human; conditions: HEK293 cell lysates; 2 h at 4°C with glutathione resins; anti-GFP Western blot
Procedure: as §1, §2

GST alone = test: GST pull-down, GST alone (negative control); format: binding; conditions: GST alone as bait; HEK293 cell lysates; anti-GFP Western blot
Procedure: as §1, §2

GST-PDZ ZO1 = test: GST pull-down, GST-PDZ ZO1; format: binding, human; conditions: HEK293 cell lysates; 2 h at 4°C with glutathione resins; anti-GFP Western blot
Procedure: as §1, §2

GST-PDZ MPP5 = test: GST pull-down, GST-PDZ MPP5; format: binding, human; conditions: HEK293 cell lysates; 2 h at 4°C with glutathione resins; anti-GFP Western blot
Procedure: as §1, §2

GST-PDZ MLLT4 = test: GST pull-down, GST-PDZ MLLT4; format: binding, human; conditions: HEK293 cell lysates; 2 h at 4°C with glutathione resins; anti-GFP Western blot
Procedure: as §1, §2

MPP5 PDZ = target: T1, MPP5 PDZ; test: MST; […]; PBS tween 20 0.05%; room temperature; […]; duplicate; conditions: both partners purified
MLLT4 PDZ = target: T2, MLLT4 PDZ; test: as above; conditions: both partners purified
PARD3 PDZ3 = target: T4, PARD3 PDZ3 (human, UniProt Q8TEW0 582-685); test: as above; conditions: both partners purified
T4 construct: third PDZ domain of human PARD3, residues 582-685, numbering of the full-length human protein; […]; Labelled on amines with RED-NHS dye for MST; also called PARDD3-3; not shown: His tag, N-terminal, cleaved

LNX2 PDZ2 = target: T3, LNX2 PDZ2; test: as above; conditions: both partners purified
ZO-1 PDZ2 = target: B2; test: as above; conditions: both partners purified
[1] = target: the molecule itself; test: AUC; sedimentation velocity, ZO-1-PDZ2 at 1 mg/mL; Tris 50 mM pH 7.5, NaCl 150 mM, TCEP 0.5 mM; 20°C, 42,000 rpm
[2] = Analytical ultracentrifugation; format: physicochemical; conditions: 1 mg/mL, 20°C; for Oligomeric state in solution: AUC; for Oligomeric state in solution / Frictional ratio f/f0 (average) / Molecular weight estimated by analytical ultracentrifugation (AUC) / Peak proportion: pH 7.5; for Frictional ratio f/f0 (average): average over peaks; for Sedimentation coefficient: Tris 50 mM pH 7.5, NaCl 150 mM, TCEP 0.5 mM, 42,000 rpm, MLLT4-PDZ with excess of E PBM peptide
Procedure: ZO-1-PDZ2 and MLLT4-PDZ were prepared at 1 mg/mL. MLLT4-PDZ was prepared with an excess of protein E PBM peptide. Samples were prepared in Tris 50 mM pH 7.5, NaCl 150 mM, and TCEP 0.5 mM. A sample of 400 μl was loaded into 1.2-cm double-sector cells between two sapphire windows. […] Sedimentation profiles were monitored over time by absorbance measurement at 280 nm and by interferometry. The data were analyzed using the continuous size distribution model c(s) of the Sedfit 16.36 software. All distributions were calculated with a floating frictional ratio f/f0 and a maximum entropy regularization procedure with a confidence level of 0.68. The buffer viscosity (η = 0.01031 Poise), the density (ρ = 1.0059), and the partial specific volume of 0.746 for MLLT4 and 0.736 for Z0-1 were estimated at 20°C from the amino acid sequences at 20°C using the software SEDTERP 3.0.3.^3

T4 sequence (Q8TEW0 582-685): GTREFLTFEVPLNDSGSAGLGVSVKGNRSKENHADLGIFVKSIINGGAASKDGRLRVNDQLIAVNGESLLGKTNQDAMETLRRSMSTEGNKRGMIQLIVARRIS

Molecule | Oligomeric state in solution [2] | Frictional ratio f/f0 (average) [2] | Sedimentation coefficient ([2]; peak 1) [S] | Molecular weight estimated by analytical ultracentrifugation (AUC) ([2]; peak 1) [kDa] | Peak proportion ([2]; peak 1) [%] | Sedimentation coefficient ([2]; peak 2) [S] | Molecular weight estimated by analytical ultracentrifugation (AUC) ([2]; peak 2) [kDa] | Peak proportion ([2]; peak 2) [%] | Sedimentation coefficient ([2]; peak 3) [S] | Molecular weight estimated by analytical ultracentrifugation (AUC) ([2]; peak 3) [kDa] | also measured
GFP-E last 12 aa (NLNSSRVPDLLV; also: fused to GFP, attachment end not given here) |  |  |  |  |  |  |  |  |  |  | GFP-tagged protein in bound fraction (GST-PDZ LNX2): detected in all interactions with GST-PDZ domains; GFP-tagged protein in bound fraction (GST-PDZ PARD3): detected in all interactions with GST-PDZ domains; GFP-tagged protein in bound fraction (GST alone): not detected; GFP-tagged protein in bound fraction (GST-PDZ ZO1): detected in all interactions with GST-PDZ domains; GFP-tagged protein in bound fraction (GST-PDZ MPP5): detected in all interactions with GST-PDZ domains; GFP-tagged protein in bound fraction (GST-PDZ MLLT4): detected in all interactions with GST-PDZ domains
B1 |  |  |  |  |  |  |  |  |  |  | Kd (MPP5 PDZ): 30 µM; Kd (MLLT4 PDZ): 569 µM; Kd (PARD3 PDZ3): 341 µM; Kd (LNX2 PDZ2): 289 µM; Kd (ZO-1 PDZ2): 15 µM
B2 |  |  |  |  |  |  |  |  |  |  | stoichiometry N [1]: 2 and ~4
B3 | one dimeric form and one higher oligomeric state possibly compatible with a tetramer in solution | 1.4 | 2.1 | 26 | 49 | 2.8 | 40 | 49 | 3.7 | 60 | 
B4 | mainly monomeric in solution | 1.2 | 0.5 | 2.8 | 25 | 1.4 | 12 | 65 | 2.3 | 26 | Peak proportion ([2]; peak 3): 10%
